# Data as given in US20040005688A1.
# Columns and labels:
# [1] = biological target: Dsh, C-terminally tagged, expressed from pcDNA3.1 in NIH3T3 cells (Drosophila) (UniProt P51140); experiment: cell-based or functional assay
# [2] = biological target: Dvl3, mouse homolog of Dsh, C-terminally tagged, expressed from pcDNA3.1 in NIH3T3 cells (mouse) (UniProt Q61062); experiment: cell-based or functional assay
# Sequence of Dvl3, mouse homolog of Dsh, C-terminally tagged, expressed from pcDNA3.1 in NIH3T3 cells (mouse) (Q61062 whole entry): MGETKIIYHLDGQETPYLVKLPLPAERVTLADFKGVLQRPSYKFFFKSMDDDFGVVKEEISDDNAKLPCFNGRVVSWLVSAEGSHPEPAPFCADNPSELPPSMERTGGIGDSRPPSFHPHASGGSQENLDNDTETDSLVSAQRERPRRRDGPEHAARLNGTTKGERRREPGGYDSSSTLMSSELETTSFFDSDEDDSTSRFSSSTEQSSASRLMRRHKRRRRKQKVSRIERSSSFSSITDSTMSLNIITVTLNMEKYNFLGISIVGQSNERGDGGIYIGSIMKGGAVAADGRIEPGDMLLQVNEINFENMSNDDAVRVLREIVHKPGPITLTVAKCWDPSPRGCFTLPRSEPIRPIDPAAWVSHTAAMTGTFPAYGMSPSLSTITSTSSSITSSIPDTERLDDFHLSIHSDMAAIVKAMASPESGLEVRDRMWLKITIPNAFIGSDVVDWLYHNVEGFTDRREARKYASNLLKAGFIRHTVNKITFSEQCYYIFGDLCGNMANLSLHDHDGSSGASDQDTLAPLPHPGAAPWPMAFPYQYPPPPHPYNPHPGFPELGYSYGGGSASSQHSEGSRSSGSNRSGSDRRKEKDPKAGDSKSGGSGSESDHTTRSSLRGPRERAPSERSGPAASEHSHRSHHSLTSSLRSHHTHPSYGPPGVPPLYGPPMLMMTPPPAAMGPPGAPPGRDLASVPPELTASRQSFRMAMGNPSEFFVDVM
# Sequence of Dsh, C-terminally tagged, expressed from pcDNA3.1 in NIH3T3 cells (Drosophila) (P51140 whole entry D276N): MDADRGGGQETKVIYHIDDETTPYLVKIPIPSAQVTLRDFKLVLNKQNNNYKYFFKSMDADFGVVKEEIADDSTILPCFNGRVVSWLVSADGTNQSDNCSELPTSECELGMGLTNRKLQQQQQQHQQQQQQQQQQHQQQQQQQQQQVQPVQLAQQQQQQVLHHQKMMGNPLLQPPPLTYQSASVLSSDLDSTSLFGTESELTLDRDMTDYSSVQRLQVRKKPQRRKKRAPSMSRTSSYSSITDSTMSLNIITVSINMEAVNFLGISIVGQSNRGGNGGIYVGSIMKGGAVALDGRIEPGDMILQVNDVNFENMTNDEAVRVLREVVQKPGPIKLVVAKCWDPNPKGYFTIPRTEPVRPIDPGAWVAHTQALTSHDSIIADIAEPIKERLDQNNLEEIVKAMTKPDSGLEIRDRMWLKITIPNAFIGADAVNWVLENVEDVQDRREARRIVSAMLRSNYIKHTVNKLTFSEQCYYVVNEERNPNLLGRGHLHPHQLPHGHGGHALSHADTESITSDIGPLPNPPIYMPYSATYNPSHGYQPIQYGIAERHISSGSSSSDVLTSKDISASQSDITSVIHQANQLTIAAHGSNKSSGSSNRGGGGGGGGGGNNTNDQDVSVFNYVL
substance,measurement,setting,value
"DAKa, wild type, C-terminally tagged, expressed from pcDNA3.1 in NIH3T3 cells (enzyme)","activation of the LEF1 reporter (luciferase, NIH3T3 cells)",[1],10 fold
same,"activation of the LEF1 reporter (luciferase, NIH3T3 cells)",[2],95 fold
